According to paper PMC3711080 (Bioconjugate chemistry, 2011):

Legend:
CXCR4 = CXCR4 (Homo sapiens, UniProt P61073); test: Competition binding against 250 nM of peptide 3, flow cytometry; conditions: ratio of KD values, higher affinity of 1
[1] = biological target: chemokine receptor 4 (CXCR4) (human (endogenous in MDAMB231)) (UniProt P61073); test: flow cytometry on cells
Sequence of chemokine receptor 4 (CXCR4) (human (endogenous in MDAMB231)) (P61073 whole entry): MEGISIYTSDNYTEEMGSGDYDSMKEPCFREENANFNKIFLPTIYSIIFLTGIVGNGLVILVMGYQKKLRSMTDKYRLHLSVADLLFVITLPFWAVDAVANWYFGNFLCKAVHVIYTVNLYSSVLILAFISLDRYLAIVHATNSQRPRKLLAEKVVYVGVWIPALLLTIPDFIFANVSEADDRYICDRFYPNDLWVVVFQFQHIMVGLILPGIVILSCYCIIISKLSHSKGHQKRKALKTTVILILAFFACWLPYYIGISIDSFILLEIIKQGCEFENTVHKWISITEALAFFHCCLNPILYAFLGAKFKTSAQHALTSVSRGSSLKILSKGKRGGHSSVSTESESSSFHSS

Sequence of CXCR4 (P61073 whole entry): as above

receptor affinity relative to derivatives 3 and 4 (CXCR4)	Kd [1] [nM]	MFIR (mean fluorescence intensity ratio), MDAMB231^CXCR4+ cells [1]	Substance
approximately 20 times	–	–	Ac-TZ14011 [compound 1]
–	187	45.3	Ac-TZ14011 labeled with the MSAP reagent (peptide 3)
–	177	56.7	Ac-TZ14011 labeled with the MSAP reagent, indium-labeled (peptide 4)
